A word on the stoichiometry N: it is the number of molecules, sites or subunits per partner or assembly.

The first series addresses T1, His-OsbR (Chromobacterium violaceum ATCC 12472) (UniProt Q7NR79).
T1 sequence: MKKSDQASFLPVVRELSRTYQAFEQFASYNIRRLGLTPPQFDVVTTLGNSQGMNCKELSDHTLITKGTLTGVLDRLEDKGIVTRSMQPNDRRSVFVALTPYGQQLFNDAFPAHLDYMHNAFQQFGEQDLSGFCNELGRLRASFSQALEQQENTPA
Description: EMSA. The settings on record: EMSA with 32P-labeled PCR probes and reduced His-OsbR; buffer, salt, pH and temperature not given (refers to earlier papers); CHP pretreatment at room ….
Turning to “TTGGATCCTGCCGGAGCGGAATGCAACTGGACGATATCGCCGGATTGAGGCAGTCGCTGTGCGATCTGCGCGACCGGCTGCTGCAATGAACCCGTCAGGGTTTTGATAGTTAGATAGTGCACTATTAAATAGCTCATTATTTTAATCGCAACGGCGTCAAGCCAAGGAGAGCCAGATGAACCCTCTGCAAAAAGTACTGTATACCGCCGAAGCCACCGCCTGCAGTAAT (double strand) [ohrA promoter]”, the binding entry was “binds”.

With “ATCGGGATGCCCAGCACCGCGAACATCATCCAGACCATGAAGCAGAGGGTGAAAGCCAGCGTGCTGCTGGCCAGCACGCTGTAGCGTTTGAATGTCGGGGAAGTCATGGCGCCATATCCATGGAGTGGTCATGGCTACCACGATAAGCGACGGCGGCGCGCGCCGATATTCGTCTGTCGCAGGACTGTCAGTCTGCCAACGGACGAGGCGGATTAACCCTTACGGCTGGCGCCGGCTACTCCCAATGGGGGAGAGTCA (double strand) [narK1 promoter]”, the binding entry is “no binding”.

With “CCTCGTAAAAGCGGATGGCGCGGGTGGTGATGTCGAACTCCTGCGCGAGTTCGGTGATGTTGAAAACCTGTTCGCCCATGCGTCTGTCCCTTTATCTTCCCGCTGCGGCCACGCGCGCCACAGTCGGGTGCTTTTGCATTCATTGTCTGTTGACGTTGACGTAAACGTCAAGTTATCGTGATCGAAAGTAGAGCAAACAGTCCAGGAGAAGCAGATGAGCCAGAAAATCGGCGTGGTGGGCGCGGGCACGATGGGCAACGGCATCGCCCAGGTCTTCGCGATGAAGGGTTTCGACG (double strand) [CV_2087 promoter]”, the binding entry is listed as “binds”.

With “GACCATACTAGACAGCTACGCCACCTTCAGCGCCATCGACCGCCACAGCGAAAGCCGCCAGAAACATCCCTTCGTCGCGCAATTGCTGCGCCGCTATCCGCAAATCACCACGCTG (double strand) [CV_0208 coding region]”, the binding entry was “no binding”.

With “CTCGCTGGCCGATCTGGGACGCGGCCCGGTGCGGGCGGCCGCCTGATCGCGGTTTCGCGCCCGCTTGGCGCGGGCGCGTCGCGGTTCCGCATAATAATAAATTGCTTGCAATTAAATAGTGCACTATTTATTATGCGGCCATGGAACAAGAAAACACGTGCCCGCCGCAGGACGCGCTTTTGCGGCTGGACCAGCAACTCTGCTTCGCGCTGTATTCCGCC (double strand) [ohrR promoter]”, the binding entry is “no binding”.

For the substance “GACCAAGTGATAGACGCCGGCACGCTGCGCGCGGTGTACGGCGTGAACGGCCGGGTGGAGCGCTGCACGCAGGGCGTGCCCCACGTGCTGGTGGACGGCCTGGCCGCAGGCTGAGCGCCGCGGCGGGGCGGCGCTCGCCGTCCCGCCCGATTGAAATCTTCACTCCCTCGCAAGAATGCGATTGAAATTGATATTCAATCGCATTTATGATGTCAGCCTCCGCTCAGGAGCCGCCCAGGCGGCCAAAACCAATAACAGGCAGACATCCTCATGACCGAGAAGCTTTAGGCC (double strand) [cbaF promoter]”, the binding result is given as “no binding”.

A further series concerns the target His-OsbR (oxidative stress response and biofilm formation regulator, CV_3905, MarR family) (Chromobacterium violaceum). Briefly: non-reducing SDS-PAGE (covalent dimers after oxidation); purified His-OsbR incubated with the oxidants TBHP, CHP or H2O2 at 0.1 and 1 mM, room temperature, alkylated with 100 mM NEM for 2 h, non-reducing SDS-PAGE, Coomassie staining; monomer to covalent dimer.
Settings: not given
Turning to “His-OsbR (oxidative stress response and biofilm formation regulator, CV_3905, MarR family) (natural protein)”, the stoichiometry N worked out at 2.

The values are drawn from PMC8567585.
